Reference: the DeepSol protein solubility set

experiment: soluble on expression in E. coli; label from the status in PepcDB or PDB records

Row | Sequence | soluble on expression in E. coli
1 | SLQMQGITGSNITVLELVERYLSLKTGVKHNTLANYKFVVNVLKKEEFAYKKVDDVKLSDAKIFLIKLQRDGRGYSSIHSIRGVLRPAFQMAVDDDLILKNPFGFELGTVLVNDSQKRQAVSPEDETKFLDFVKNDPHYNQYYDAFYILFKTGLRISEFCGLTVKDLDFKEDIINVNHQLQRTREMKYIIVSTKTTSGTRLLPMEADVKEAFLRILKNRRKPKREPMVDGYGGFLFLDKNGRPMVALHWEKYMQHAREKYNRENLLQLPPVTPHICRHTYCTNMANSGMNPKTLQYLMGHSDVSVTLNIYTHTGYDDAKKELARLKEARDELEKKKFITQKHAQTTHVSLIS | not soluble
2 | MNILKHFPSYVGPSKIRTLVIPIGHWTRKEFNNAVQKLSEFNEIHLSDVTPIDSPIFTPQGFPHGKLFFDFLTIDHDDALELFLYDFEPFRKTFVIIGLVNDYSDPLTNLNFMKEKYPTLISPNLVYASSTPTKELEQTIDTMENVFASSPDMQKNIETIMCDIARNFLTALNSYYSSYKHVTLRSPGAIGGNAVLKTTLIRQNSYTSSSSSTPMSAVQSSVSSSSKAGSVTTASKRLSSFEMTTNSLKRSASLKLATTLSTSENRSQQKSLGRQMKILGNFQLLAGRYVDALNSFVDAITTLYKVRDYLWLGSALDGISICFLLLSYLGLSYQIPQIVSLICPVEKLNFESSSTGISPVDSNSKATASTTASSTPRNSISIAAMQSPRNSIMSLSAPALNIDVENINLPLLIKCISDKVLYYYDLSLMHNSEYAPQVVYCEFLLKTLTFMTSCYKSSEFSKDVLDNIVKNQHRALSDIPNSPMFPRFEVYFYSNKLFELQLKEMQVEAQIKIYSTMAEVYRLLGYKRKQLFVLRLLMVALLATPNKIAWHPDYRTLIDTIIELLNINESEAKINVDDPSQSTWLILQKKILQLCIKVSRKINDFEYVAKFSSILITKYTHLLNQSEQDALFKEYIQPSITNESITSYWDPFILREVVINRILDSDPTSNEIPLESDVSSLESLENRQKTQDINPQEVFNPFKRVQPTSFVSNNSTKVPILVFLVGDKAEFTCRVQNPFKFDFTINDIQLDEEISEFCEIDRKAVSYSGPYNVKAESIRSITLPLIIKKPTYKKIYEISCLKISILKLPLQKFDIINDSRRSNPVEEEAEYSKCIYGKLKIKILPEQPQLELLSTSKMTRNSWMMLDGTKTDFHITVRNKSLSCAINHIKIIPMNNIEQMLKPDYWKKMPPDDLYIMEKQLDWLSKSCVRIIKLPTVIKPNETITFDLELDNTAVPFNFTGFDLLIEYGMSATDESCIYLKKLSIPYEVTLRRTIEVPSMDIIPLNELFSSQVENVDWIEYVMSKIRAESNLHSRDFILLLLDFRNSWIDGIKLNVQFEDFTSNEYHVEASHTSRIIVPIKKIDYKKYNFENTPIPRIYPGRQFIQSGLNEEQTIEMRQKFWCREHIISKLKCNWKLTTDQSVTGSVDFNKFIEKFDHKMVYTIYPGRLFYGVQLLLDEPKVKVGEIINLKIITEPTSTCRRKQNSTVNFLDIVIFDSKTSKILPRSNRRILYNGSLTKPISTTKVSEINLEIIPIEKGRYEFSVCISKSNNQDGIIQFDSENVILSVI | soluble
3 | MGSDKIHHHHHHRSPQGQFTEDDNPNALVNGKIYNVYTMMRSFDITAGTPAIAIHYLRSEDSEKGSIPSDGSDVAEMYDDFLYTPTNGLLGSYWGKNYAIIYQCNDILDAIAEKETAGQTETEDIINKGEASFFRAYCYFNLVRAFGEVPLVTYKINDASEANIPKTTADKIYEQIDTDLKTAEESLPETWSTEYTGRLTWGAARSLHARTYMMRSDWDNMYKASTDVINKGLYNLKTPYNEIFTDDGENSGGSIFELQCTATAALPQSDVIGSQFCEVQGVRGAGQWDLGWGWHMATQLMADAYETGDPRKNATLLYFRKTDDEPITPENTNEPYGESPISPAMGAYFNKKAYTDPALRKEYTNKGFWVNIRLIRYSDVVLMAAEAANEKNIPGEAVDYLEMVRARARGTNTNILPKITTNDQGELREAIRHERRVELGLEPDRFYDLVRWGIASEVLHAAGKVNYQDKNALLPLPQSEIDKSKGVLVQNPDY | not soluble
4 | MKFSALGDQAIIVTFGEEIKRDIYEKVQRLFQALQQHPFAGMIECVPSFTSLAVYYNVYEVWKGNERSERSHDYVRQYIKELCDSYKEEVKQDVKHISIPVCYGGEYGPDLEEVAHYHGLQVEDVIRIHSETTYFVYMLGFTPGFPYLGGLSKELETPRKETPRLQISPGSVGIGGNQTGIYPLETPGGWNIIGRTPISLFNPEEEIPTYIQSGMYLRFIPITKEEYVSLEGAKKWMLEHHHHHH | soluble
5 | HITHKLLIPAWDGIVLEGLSVKERKTTNNTVVLALIGHFQTEHHYLNTSFHEFQELFGTELVLINHRNYSNRSNKFANSAEEIARDVLAFAKHFRQKNKKIVLYGMCGGAAHMILAA | not soluble
6 | MAHHHHHHMELNKLCSFLLRGNISHCENAPTGENAPKGENAQTGENAPKSENPPKSEHSQALFQDASGGKNNDSILDVIKKIPINPFIDSNEDLNKYKYGVEKKKIQRYTGVQVYEEEDKDHKKNQPVDYPFPVSKSVVFEKNKVNKSEDRININYSNIASDLYPEEGFKTPNRKKHFSSDWEMLLAHNHGLYNFKNTDHNTIVNKDMYALNTENDIRNKLNLYVERINVDNPNDACKYLAIEEYKCLLTHSFHMNPDVSNQKCVKWFNEYMQCKWDEHKLNYGYNYIENRRNKKSKAYIAAPDYQYS | not soluble
7 | MLRTQFEEELLNLHNQFYEMGMMVSSAVHKSVKAYINHDKKLAQEVIDRDIEINDMEVKLEKKSFEMIALQQPVTTDLRMIITVMKASSDLERMADHAVSIAKSTIRLKGETRIPEIEKEISDMSDYVKKMVDNVLIAYVKTDQKDARMIAQMDDRTNEYFDSIYKHAVEAMKANPETVISGTDYLHVAQYLERIGDYVTNICEWIVYLATGKITELNSNRDEQF | not soluble
8 | RGKVFLEAQEKYEVNVIYLVSHALVETGNGKSELAKGIKDGKKRYYNFFGIGAFDSSAVRSGKSYAEKEQWTSPDKAIIGGAKFIRNEYFENNQLNLYQMRWNPENPAQHQYASDIRWADKIAKLMDKSYKQFGIKKDDIRQTYYK | not soluble
9 | MGSDKIHHHHHHMYYQLYELHHAALQPARTYADAIRLFYSNPLNPVSSTTWGRSIAAAAEMFERTTRRYGKPGFGITSTVVDGKEVRVQEKEVWSRPFCRLLHFERQLPARRKPDVKLLMVAPMSGHYATLLRGTVEAMLPHADVYITDWIDARMVPLSYGNFDLDDYIDYLIEMFHLLGPDASVMAVCQPSVPVLAAVALMEARGDPNLPSSMTLMGGPIDTRRNPTAVNRLAQEHGIEWFRDNVVMSVPWPNPGFMRPVYPGFLQLSGFMSMNLDRHIVAHEEFFMHLVKGDGDSAEKHREFYDEYLAVMDLTAEFYLQTVDTVFIRHALPKGEMTHRSERVDPASIRSVALLTVEGENDDISGIGQTKAAHDLCVNIPSGKRHHHLQPSVGHYGVFNGSRFRKEILPRIVRFVNENRGA | not soluble
10 | VSFPSSPPALPAIVARFAVGRPVRAVWVNELGGVTFRVDSGMGAGCEFIKVARRGTADFANEARRLRWAAPYLAVPRVLGVGVDGDWAWLHTDALPGLSAVHPRWRASPQVAVPALGAGLRTLHDSLPVHSCPFDWSTASRLAKLAPARRAELGDSPPVDRLVVCHGDACSPNTILDDTGRCCGHVDFGNLGVADRWADLAVATLSLQWNFPDYPGQVRDDEFFAAYGVAPDPARIDYYRRLWQAEDDSSR | soluble
11 | SLPVLAPVTKDPATSLYTIPFHDGASLVLDVAGPLVWSTCKGGQPPAEIPCSSPTCLLANAYPAPGCPAPSCGSDKHDKPCTAYPYNPVSGACAAGSLSHTRFVANTTDGSKPVSKVNVGVLAACAPSKLLASLPRGSTGVAGLANSGLALPAQVASAQKVANRFLLCLPTGGPGVAIFGGGPVPWPQFTQSMPYTPLVTKGGSPAHYISARSIVVGDTRVPVPEGALATGGVMLSTRLPYVLLRPDVYRPLMDAFTKALAAQHANGAPVARAVVAVAPFGVCYDTKTLGNNLGGYAVPNVQLGLDGGSDWTMTGKNSMVDVKQGTACVAFVEMKGVAAGDGRAPAVILGGAQMEDFVLDFDMEKKRLGFSRLPHFTGCGGL | soluble
12 | MTLDANSAPVRDMASAHFSPGEDCRRKIRDLCRQARISVDICVFTISDDQLSDEIRACHQRGVAVRVISDSEKQFDVGSDIAALREAGVPVRIDDTPFHMHHKFAVFDGRTLLNGSFNWTRSATTGNEENLLVIDHPQLVASYLKEFNELWSRYAPRLEHHHHHH | not soluble
13 | MVHGKLKEAAEVTGSVSLEALEEVQVGENIEVGVGIDELVNAEAFAYDFTLNYDENAFEYVEAISDDGVFVNAKKIEDGKVRVLVSSLTGEPLPAKEVLAKVVLRAEAKTEGSNLSVTNSSVGDGEGLVHEIAGTEKTVNIIEGTSPEIVVNPVRDFKASEINKKNVTVTWTEPETTEGLEGYILYKDGKKVAEIGKDETSYTFKKLNRHTIYNFKIAAKYSNGEVSSKESLTLRTAR | soluble
14 | MGSDKIHHHHHHMEQLPILNLSDWHAGGQSRHAFITKLADAARRIGFFYLTGHGIELARQQQVLLLARDFFALPLADKLAVKMTNTPHFRGYTRLQGELTLGKPDLREQFDIMQEETANPPRSDVPKWSQLQGPNQWPSQLPQMKTILLEWQQDLADTSVALLKALAVALEQSETAFDATIDAGPYQHMKLIRYPNANGETSGQGVGAHKDPGYLTLVLQDKQSGLEVQTDEGWLSIPPLEGAFVVNIGELLELASNGYLKATYHRVTSPPAGVERYSCAFFMAAQLNATVPLLPLPEYLARQALGPASDPLNPLFHQVGQNVLKGRLRSHPDVAKAHYASFANAI | not soluble
15 | MSLENWRFIEANSDYMVSDHGRILSFKGKSKLIISSSITAKGYEYVAIRQKGIYVGYSVHRLVATAFIPNPKRLPQVNHLDGNKLNNHVANLEWCDAYDNVMHAIRTGLRPSSPALSPVPCATTDEAGNILQAYPSMNALVKGEQMNPKQRNWLVLHLLHPERLKQSAMKKKSRAERSGSEECFLIAPEIPVLTVKADSIGEFEAGNPLGIGKSSNSVGEFEAGNPLGIGKSSNSVEEFEAGNPLGIGKSSNSVGEFKAGNVCVQPVSFSFVSSPFPLISLFAPIHHSVTQHYYRRLSPEESAIFGFNTYILPRERGQRKEFLQEGHHHHHH | not soluble
16 | MSLFYYIVDDDEVFRSMLSQIIEDGDLGEVIGESEDGAFVEAEQLNYKKVDILFIDLLMPMRDGIETVRHIASSFTGKIIMISQVESKQLIGEAYTLGVEYYITKPLNKIEVVSVVRKVIERIRLERSIYDIQKSLNNVFQWEKPQMRSETVQEEKKISDSGRFLLAELGIAGENGSKDLLSMLEYLYGQEKAQTFEFGFPALKDIFHQITLKKLGEIASDADIEKEKKASEQRVRRAIYQSLNHLASLGLTDFSNPKFESYAPKFFDFTVVRKRMTEMTKDGVATSGHIRINTKKFIQVLYFEAKRLMEIEEGHHHHHH | soluble
17 | MMTDEERIELQQNNPLHGLKLETLLQELVDFYGWEILDTAMRLNCFNTNPSVASSVKYLKKTEWAREKLENFYLYRFKRMPRASNLEYDKPPRARTFPHGLEPKEPMELTVDSILKSQAKAASAHKARTSNRGGNYRRLEHHHHHH | soluble
18 | MIPKVIHYFWFGRGKKNDVIERCMDSWKVHLPDYEIKEWNEDNFNVHINNFTLQAYQMKKWAFVSDYARLHILYHYGGIYLDTDLEITNSLDPFLDYEGFMGFFSNFDISGGIIGAAKGNKFIKKLLTYYENKNFIDGNGKIDEKTNVEIITEISKKHFGFVGENQTQQILDMTIFPKEYFTVRDVNVKNYAIHHYNASWLSHEEMNKHLKSYRKYYEFTVKWLDNLINNKIDLTPYKNKCIAIFGKGYIGELLVSYLQNNNVPIRQIIDTKFANDTYKDIPIVSSDTISDEVNLIIITPIHSFESIYLSLKEKSCADIISIENLLS | soluble
